assay: label from the status in PepcDB records

Sequence | protein production
MSQIEAVFFDCDGTLVDSEVICSRAYVTMFRQFDITLELTEVFRRFKGVKLYEIIDTISKEHGVALAKAELEPVYRAEVARLFDTELEAIAGANTLLESIKTPMCVVSNGPVSKMQHSLGKLGMLHHFPDLLFSGYDIQRWKPDPALMLHAANAMKVNVEKCILVDDSSAGAQSGIAAGMEVFYFCADPHNKPIDHPNVTTFTDLAQLPGLWKAR | failed
MSQLEIRDLWASIDGETILKGVNLVVPKGEVHALMGPNGAGKSTLGKILAGDPEYTVERGEILLDGENILELSPDERARKGLFLAFQYPVEVPGVTIANFLRLALQAKLGREVGVAEFWTKVKKALELLDWDESYLSRYLNEGFSGGEKKRNEILQLLVLEPTYAVLDETDSGLDIDALKVVARGVNAMRGPNFGALVITHYQRILNYIQPDKVHVMMDGRVVATGGPELALELEAKGYEWLKEKVKEGA | not failed
MSQLLKLKSQYDDECTVTRHYEGKGRNAGRLGAVGCKNRHGEFRIGSGFKDKDRDNPPKIGTLITYRYRGFTRKGTPKFATFVRVRTLEHHHHHH | failed
MSQLNSVWVFSDNPERYAELFGGAQQWGQQVYAIVQNTEQAQAVMPYGPKCIYVLEQNDALQRTENYAESIAALLKDKHPAMLLLAATKRGKALAARLSVQLNAALVNDATAVDIVDGHICAEHRMYGGLAFAQEKINSPLAIITLAPGVQEPCTRDISHQCPTETVPYVAPRHEILCRERRAKAASSVDLSKAKRVVGVGRGLAAQDDLKMVHELAAVLNAEVGCSRPIAEGENWMERERYIGVSGVLLKSDLYLTLGISGQIQHMVGGNGAKVIVAINKDKNAPIFNYADYGLVGDIYKVVPALISQLNR | failed
MSQPPLLSGPGGRLLGAALLIGLLAGCGSVSTGNAGSGTVGTSTTSRADVMTFQPSSLPVSYVGETYNVQVGVTGGVGPYGYRLTAGTLPPGLKFAGGALSGTPTKAGSYSFAIQATDANLSTRVQEYTMNVDALPPLALKPTLPPGEIRGETRIPVTIQAPRAVRAARLSWDLGKDVQVTRVQPADAGSVVFWQQRGSVLTVDLGFRTVPRPDARIALITVKPAKAVTLKADALGYEARDGSGKMLVDKKRPGSEPVKPAEQPGDPKVDPKAADQKATDQKATDPKTVDPKTVTPADTVEGGPLPSPALPTPSLPPTLPPVTTPPANTPPVPTPTPPANQPAPAPAPQPAPAPQPTPPSGTGGALEHHHHHH | not failed
MSQQSSSPTKEDNNSSSPVVPNPDSVPPQLSSPALFYSSSSSQGDIYGRNNSQNLSQGEGNIRAAIGSSPLNFPSSSQRQNSDVFQSQGRQGRIRSSASASGRSRYHSDLRSDRALPTSSSSLGRNGQNRVHMRRNDIHTSDLSSPRRIVDFDTRSGVNTLDTSSSSAPPSEASEPLRIIWGTNVSIQECTTNFRNFLMSFKYKFRKILDEREEFINNTTDEELYYIKQLNEMRELGTSNLNLDARNLLAYKQTEDLYHQLLNYPQEVISIMDQTIKDCMVSLIVDNNLDYDLDEIETKFYKVRPYNVGSCKGMRELNPNDIDKLINLKGLVLRSTPVIPDMKVAFFKCNVCDHTMAVEIDRGVIQEPARCERIDCNEPNSMSLIHNRCSFADKQVIKLQETPDFVPDGQTPHSISLCVYDELVDSCRAGDRIEVTGTFRSIPIRANSRQRVLKSLYKTYVDVVHVKKVSDKRLDVDTSTIEQELMQNKVDHNEVEEVRQITDQDLAKIREVAAREDLYSLLARSIAPSIYELEDVKKGILLQLFGGTNKTFTKGGRYRGDINILLCGDPSTSKSQILQYVHKITPRGVYTSGKGSSAVGLTAYITRDVDTKQLVLESGALVLSDGGVCCIDEFDKMSDSTRSVLHEVMEQQTISIAKAGIITTLNARSSILASANPIGSRYNPNLPVTENIDLPPPLLSRFDLVYLVLDKVDEKNDRELAKHLTNLYLEDKPEHISQDDVLPVEFLTMYISYAKEHIHPIITEAAKTELVRAYVGMRKMGDDSRSDEKRITATTRQLESMIRLAEAHAKMKLKNVVELEDVQEAVRLIRSAIKDYATDPKTGKIDMNLVQTGKSVIQRKLQEDLSREIMNVLKDQASDSMSFNELIKQINEHSQDRVESSDIQEALSRLQQEDKVIVLGEGVRRSVRLNNRV | failed
MSQSKEDKIRSILEAKNIKSNFQNKENLSEFNEKKASKRAEDLLDVYYNTLSTADMEFPYWYNREYRKSDGDIPVVRRAKALKAAFSHMTPNIIPGEKIVMQKTRHYRGSFPMPWVSESFFVAQGEQMREEAKKLASNTADELTKFGSGGGNVTESFGNVVSIAGKFGMRKEEVPVLVKMAKEWVGKSVEDLGFHYEKMMPDYDLKENLMSTLICMFDSGYTLPQGREVINYFYPLNYGLDGIIEMAKECKKAVAGNASGDGLIGMDRLYFYEAVIQVIEGLQTWILNYAKHAKYLESIETDLEAKKEYSDLVEILEHIAHKQPRTFREALQLTYTIHIASVNEDAISGMSIGRFGQILYPWYEQDIEKGLITKEEVIELLELYRIKITCIDCFASAGVNGGVLSGNTFNTLSIGGLKEDGSTGANELEELLLEASMRCRTPQPSLTMLYDEKLPEDFLMKAAECTKLGSGYPAWVNNSNGTTFMMKQFADEGMTVEEARAFALGGCLETSPGCWKQLTLNGKTYSIAGGAGQSAGSGVHFIANPKILELVLMNGKDYRMNIQVFEPHNKPLDTYEEVIEVFKDYYKQAINVLERANNIELDIWRKFDTSIINSLLKPDCLDKGQHIGNMGYRYNATLNVETCGTVTMVNSFAALKKLVYDDKAFTIEEMKDAILNNFGFKDALEVGNYSMADQVKVDKTGKYDAIYKACLDAPKYGNNDLYADNILKNYEVWLSKVCEEAQSLYAKKMYPCQISVSTHGPQGAATLATPDGRLSGTTYSDGSVSAYAGTDKNGVYALFESATIWDQAVVQNSQMNLKLHPTTIKGQQGTKKLLDLTRSYLRKGGFHIQYNVVDSETLKDAQKNPDNYRQLMVRVAGFTQYWCELGKPIQDEVIARTEYEGV | failed
MSQSMYSYPAMTANVGDMAGYTGTTQSLGADIASERTAPSRACQGDLGMSHQDWQAQWNQAMEALARAYRRCRRALRQIGVLERPVGDSSDCGTIRVGSFRGRWLDPRHAGPATAADAGD | failed
MSQSNHPGGKDAGSIPRVLISADRSSSGKTTISMGLMAALVSRGYKVQPFKVALDYIDPSYHTEITGRFCRNLDGYLMDEHGILDVYTHACETGGGADIAIIEGVRGLFEGFESLSDVGSTAQIAKILKCPVVFVINARSITRSAAALIGGYKNFDPDVEIAGVILNNIGGRRHAQKAKEAIEHYTGVPVLGIIPRDPSMQISMRHLGLMPALEGRRRFGDGGFENRLHGIEEIINKGIDVDRFLGIAESAKPLTALENSIFSPAVNENSQKPKIGVALDEAFNFYYRDNIDLLEIAGAEIVYFSPVNDPGLPEVDGLYIGGGYPELFAAELEANETMRKSIKEASAAGMPIYAECGGLMYLTEKISTGVPGKGTYHDASMPESTYSMVGALPGHTIMGQTRVVSYNIGTLARDCPIGKKGNSFKGHEFHHSEILEIPDDAEFAIALTRGTGIRGDRDGLIVNNTIGSYAHLHGVAYRELAGSLVEAARKFRDSRVSSLEHHHHHH | not failed
MSQSPSPPDSPSASPDSPSASPMHAFLLCAGFGTRMRPVTAETPKSLVTVAGRPLLDHLLDELTAWSALTEIHVAVNHEDAPAFREWAAGHRADLETQGIGLHLHDDGVEAPDDQLGCVGDLRFLLDAVGLPADGALVSGGDSLYRFPLAPLLNAYDGTTNRVLALHEPDPERRAQSSVLQLDGPTVTAVHDDPTGTASTRICPSWLLLSAEGLGAIVPYLDDGGPPDTLGAFLDRLARTHSVQAHRLPQTGHLRLHCNTPDDLEHARKLLRKGPRHVLGPAPVRASLPEPAS | failed
MSQSSSPQQIPVVVLAGFLGSGKTTLLNHLLHRSGGSRIGAIVNDFGAIEIDAMAVAGALGDSTVSLGNGCLCCAVDAGELDLYLERLAHPSARVDVIVIEASGLAEPQELVRMVLASENARVVYGGLVEVVDAAEFDATRAKHPEVDRHLAMADLVVVNKIDRADDGERVLRAVRSLTDRAAVVPATYGRVDPELLFDCRPTGERIGQLSFDDLHEHRGEEDHHGHLHAAYDSVSFTSEAPMNPRRMMDFLDSRPEGLYRIKGYVDFGTADPRNRYAVHAVGRFLRFYPEPWAPAGPRLTQLVLIGSGIDTAALHKELDACTNDAPHADEHSMWGVLRYVQEQEQEQEQRQETAEAEQAG | failed
MSQVHRILNCRGTRIHAVADSPPDQQGPLVVLLHGFPESWYSWRHQIPALAGAGYRVVAIDQRGYGRSSKYRVQKAYRIKELVGDVVGVLDSYGAEQAFVVGHDWGAPVAWTFAWLHPDRCAGVVGISVPFAGRGVIGLPGSPFGERRPSDYHLELAGPGRVWYQDYFAVQDGIITEIEEDLRGWLLGLTYTVSGEGMMAATKAAVDAGVDLESMDPIDVIRAGPLCMAEGARLKDAFVYPETMPAWFTEADLDFYTGEFERSGFGGPLSFYHNIDNDWHDLADQQGKPLTPPALFIGGQYDVGTIWGAQAIERAHEVMPNYRGTHMIADVGHWIQQEAPEETNRLLLDFLGGLRP | not failed
MSQVRQVGLLAAGCQPWNKDVCAANGDRFAYCATLAIYIYQLDHRYNEFRLHAIMAEHKKTITAISWCPHNPDLFASGSTDNLVIIWNVAEQNVIAKLDNIKETPACLSWCWNTGDAVAFVSQKGPLLIWTISGPDSGVSVHKEAHGFVSDICIFRWHTQKKGKVAFGHTDGSISIFQPDEDDPVTALEWDPLSTDYLLVANLHYGIRLLDSESLYCITTFSFPSAAVSVQCLAWVPSAPGMFITGDSQVGVLRIWNVSRTTPIDSFKLKKAGFHCLHVVNSPPKRKFSVQSSNKNHYMSSTSEAVPPPSLTRNQAFSLPPGHVVCCFLDGGVGLYDMGAKKWDFLRELGHVETIFDCKFKPDDPNLLATASFDGTIKVWDINTLTAVYTSPGNEGVIFALSWAPGDLNCIAGATSRNGAFIWDIQKGKMIQRFNEHGKNGIFYIAWSHKDSKRIATCSGDGFCIIRTLDGKLLHKYKHPAAVFGCDWSQNNKDMIATGCEDKHVRVFYVASSSNQPLKVFSGHTARVFHVKWSPLREGVLCSGSDDGSVRIWDYTQDACISILNGHTAPVRGLMWNTEIPYLLISGSWDYTIKVWDTRGGVCLDTVYDHGADVYGLTCHPSRPFTMASCSRDSTVRLWSLIPLITPLQINILADRPWEEIIGNTDNAIEQASPPLLCGKASKDIKQEVEKLTCNPRVKKLRLFSECLSSPGGSDNLWNLVAVIKGQDDSLLPQNYYKGMMHLKHLIKFRTSEAQELTTIKMSKFGGGIGAPTKENKLKEAAEIHLRLGQIQRYCELMVELGEVA | failed
MSRAALGIRSSWVGFVAAATTAMASTIAPVAYAQVAHHVPNDGCSAVEVAVVGGTTQANIHDDPHDVYSFGKGTNFAVNMTRRFHNVTAWQLPYYSSAGITASNNDAEQKEFPPYAVSKNRGVDVLDAHLSDQAVKCPDTQFVIAGFSQGADIAGDMAERISRGKTNPALTPERVLGVYLLADPGRSDLPMNPTQGQTTTGKSGPLTDNGAVLIETNLGLPGAGSVGIAGPRAAGAFSNLPGKVRSICSSGDPACAVHPKGLLASVGKWANDQNDFEHVPVESVRTMMLNGSFFISLAPHMNKIRGDLYASDPVALKQHFDDASMHPRLTQPERNTLHLVGAEIAGLMGHLKQGRDQVAVGSSDTGLSSGGPRDRLIALEKIVQQQTGLVELQLAVGLMIVHLSYTGDSREVSTVGAQRADDWIDSDMTQLISGYLNTLSVRAPYVTLGERHTFIQKMGWPIWWIVSSIWGQRNHAARGVWEFFGL | failed

Source: a protein production outcome set (Wang et al. 2014)
